# Measurements taken from patent publication US20090111968A1 (DUQUESNE UNIVERSITY OF THE HOLY GHOST, published 2009).
# Where no end group is shown, it is not given here.
# B1: 6x histidine tagged Zn(II)GB1-Ymbs38 fusion protein (other, streptococcal;E. hirae, UniProt P06654 228-282, looked up)
# chain: TYKLILNGKTLKGETTTEAVDAATAEKVFKQYANDNGVDGEWTYDDATKTFTVTEATLTQEDIQQIMKQLNKKEPVETIECNCIPGQCECKKQ
# modifications: Zn(II) bound by the four cysteines of the Cys-x-Cys-xxxx-Cys-x-Cys site
# notes: Calculated monomer mass 12.8 kDa (tagged); also called 6hGB1-Ymbs38; native Zn(II)GB1-Ymbs38; not shown: N-terminal 6xHis tag and thrombin site (Leu-Val-Pro-Arg-Gly-Ser) from the pET-14b vector
# B2: 6x histidine tagged apo (cysteine modified) GB1-Ymbs38 (other, streptococcal;E. hirae, UniProt P06654 228-282, looked up)
# chain: B1 chain
# modifications: Zn(II) removed (EDTA or acidification); the four cysteines of the metal binding motif carboxyamidomethylated with iodoacetamide
# notes: Calculated mass of the carboxyamidomethylated protein 12,992 Da; also called apo-GB1-Ymbs38; Apo-GB1-Ymbs38; not shown: N-terminal 6xHis tag and thrombin site (Leu-Val-Pro-Arg-Gly-Ser) from the pET-14b vector
# B3: 6x histidine tagged GB1 (lacking the Ymbs38 extension) (other, streptococcal, UniProt P06654 228-282, looked up)
# chain: TYKLILNGKTLKGETTTEAVDAATAEKVFKQYANDNGVDGEWTYDDATKTFTVTE
# modifications: also: 6x histidine tag, place not given here
# notes: Calculated mass with tag 8387 Da (8.4 kDa); Control without the CopY part; also called 6xhis tagged GB1; not shown: 6x histidine tag
# Experiments:
# [1] = biological target: the molecule itself; assay: large zone size exclusion chromatography (Shodex KW 803), one trial dated 6/9/06; non-linear least squares fit of the fraction of monomer to a monomer-dimer model; cell H5 'Equilibrium constant'; sum of squares 0.025076973; no unit in the cell, loaded concentrations are in M and the text gives Ka in M^-1
# Procedure: A 5 mL aliquot of Zn(II)CopY was loaded onto a Shodex KW 803 column (total column volume is 15 mL) equilibrated in 50 mM Tris, pH 7.8, 150 mM NaCl, 0.05% β-mercaptoethanol. […] The measure of the apparent molecular weight of the protein at each concentration was calculated by correlating the elution volume of the leading edge with elution volumes of known molecular weight standards.
# The plot of the change in apparent molecular weight versus the concentration of protein loaded onto the chromatography column provided an understanding of the process that occurred during the large zone chromatography experiment. The acquired data could be further manipulated in order to calculate the equilibrium dissociation constant for the GB1-Ymbs38 dimer. […] The data points are the recorded experimental values of σw, at each loading concentration, and the solid line illustrates the best fit of the data to a monomer-dimer stoichiometric model. […] To verify that the data was fit to the appropriate stoichiometric model, a residual plot, which plots the difference between the observed fₘ and the calculated fₘ versus log [loaded protein], was prepared. […] The Kd value was calculated from the best fit of the data to a monomer-dimer stoichiometric model, represented on the plot as a solid line.
# [2] = biological target: the molecule itself; assay: large zone size exclusion chromatography, fit to monomer-dimer model, 4 °C
# Procedure: The data points are the recorded experimental values of σw, at each loading concentration, and the solid line illustrates the best fit of the data to a monomer-dimer stoichiometric model. Non-linear least squares analysis was used to obtain the best fit according to the procedure. To verify that the data was fit to the appropriate stoichiometric model, a residual plot, which plots the difference between the observed fₘ and the calculated fₘ versus log [loaded protein], was prepared. The elution volume of each sample was converted to the weight average partition coefficient, which was plotted as a function of GB1-Ymbs38 concentration loaded onto the chromatography column. The Kd value was calculated from the best fit of the data to a monomer-dimer stoichiometric model, represented on the plot as a solid line. The plot shown corresponds to one of the three large zone chromatography trials performed on the apo-GB1-Ymbs38 protein variant.
# The fitting of the data yielded the equilibrium association constants for each protein variant, which were subsequently converted to dissociation constants, Kd. Residual points were obtained by subtracting the fraction of monomer calculated by the best fit from the actual experimental value. Residuals were ploted against the log (loaded protein). […] Equilibrium association constants were used to calculate the Gibbs energy of assembly (ΔG°) through the equation: ΔG°=−RTlnKₐ₋Equilibrium association and dissociation constants, and the Gibbs free energy changes are shown in Table 6 for each GB1-Ymbs38 variant. A decrease in affinity between GB1-Ymbs38 monomers occurred upon mutation of the leucine and isoleucine residues or upon the removal of Zn(II), with the Zn(II) removal resulting in a larger decrease. The combination of Zn(II) removal and mutation of the aliphatic amino acids eliminated the ability of GB1-Ymbs38 monomer to self-associate.
# [3] = biological target: the molecule itself; assay: large zone size exclusion chromatography, one of three trials; best fit of the weight average partition coefficient against log [loaded protein] to a monomer-dimer model; self-association
# Procedure: The measure of the apparent molecular weight of the protein at each concentration was calculated by correlating the elution volume of the leading edge with elution volumes of known molecular weight standards.
# The plot of the change in apparent molecular weight versus the concentration of protein loaded onto the chromatography column provided an understanding of the process that occurred during the large zone chromatography experiment. The acquired data could be further manipulated in order to calculate the equilibrium dissociation constant for the GB1-Ymbs38 dimer. The elution volume, Vₑ, was converted to the weight average partition coefficient, σw, which represented the fraction of solvent volume within the gel matrix that was accessible to the protein. […] The data points are the recorded experimental values of σw, at each loading concentration, and the solid line illustrates the best fit of the data to a monomer-dimer stoichiometric model. Non-linear least squares analysis was used to obtain the best fit according to the procedure. To verify that the data was fit to the appropriate stoichiometric model, a residual plot, which plots the difference between the observed fₘ and the calculated fₘ versus log [loaded protein], was prepared. […] The Kd value was calculated from the best fit of the data to a monomer-dimer stoichiometric model, represented on the plot as a solid line. […]
# [4] = biological target: the molecule itself; assay: ESI-MS, declustering voltage 10 V
# Procedure: A Waters Micromass ZMD quadrupole mass spectrometer was used for all experiments. The mass spectrometer was calibrated with cesium iodide. The temperature at the ion spray interface was kept at 40° C. A voltage of 2.0 kV at the tip of the inlet capillary needle was used to generate the electrospray. The cone voltage was set at 20 V and the extractor voltage was set at 10 V, resulting in a declustering voltage (ΔCS) of 10 V. Samples of protein were prepared in 10 mM ammonium acetate, pH 8.0, at concentrations of approximately 250 μM and were delivered at a flow rate of 50 μL/min into the ion source.
# A 6× histidine tagged version of GB1 alone (lacking the Ymbs38 extension) was subjected to ESI-MS under the same conditions. […] Charged ions due to monomeric GB1 are shown labeled with the bolded numbers. The molecular mass derived from the +6 and +7 charge states is 8258 Da. (Calculated molecular mass of GB1 with the 6× histidine tag=8387 Da.).
# [5] = biological target: T1, untagged Zn(II)GB1-Ymbs38 (6x histidine tag removed by thrombin) (streptococcal; E. hirae, UniProt P06654 228-282; Q47839 108-145, Zn(II) bound by the four cysteines of the Cys-x-Cys-xxxx-Cys-x-Cys site); assay: HIS-Select nickel affinity resin binding assay, SDS-PAGE
# T1 construct: also called untagged GB1-Ymbs38; untagged wild-type Zn(II)GB1-Ymbs38; not shown: vector residues left after thrombin cleavage at Leu-Val-Pro-Arg-Gly-Ser
# From the text: Sigma® HlS-Select™ Nickel Affinity resin was used to assess dimerization between histidine-tagged and untagged proteins. Tagged and untagged versions of CopY were isolated as described above. The untagged version of GB1-Ymbs38 was isolated from the purified tagged protein by treatment with the Sigma® THROMBIN CleanCleave™ Kit. A thrombin cleavage site between the histidine tag and the start of the GB1-Ymbs38 protein allowed for easy removal of the tag. Dimerization reactions of tagged and untagged protein were performed in 50 mM Tris, pH 7.8, 300 mM NaCl. Approximately equilmolar amounts of each protein were mixed and incubated at 37° C. for 45 minutes to promote subunit interchange. The protein mixture was applied to 100 μL of drained HIS-Select resin that had been equilibrated in 50 mM Tris, pH 7.8, 300 mM NaCl in a Centricep spin column (Princeton Separations, Inc.) at room temperature. After 1 minute of constant agitation, the resin-protein mixture was centrifuged at 500×g for 30 seconds and the flow through was collected in a clean microfuge tube. The resin then was washed twice with 350 μL of 50 mM Tris, pH 7.8, 300 mM NaCl, and once with 50 mM Tris, pH 7.8, 300 mM NaCl, 20 mM imidazole. Each wash step was followed by centrifugation at 500×g for 30 seconds to remove excess liquid. […] Eluants were analyzed on 15% Tris-tricine SDS-PAGE stained with Coomassie brilliant blue R-250.
binding result [5],Binder,Ka [1],Ka [2],Kd [2],Kd [3],binding result [4]
,B1,40200 M⁻¹,37000 M⁻¹,28 µM,,
,B2,,10000 M⁻¹,51 µM,54 µM,
no binding,B3,,,,,no binding (tested: approximately 250 µM)
